From patent US20130149309A1

Target: γ-secretase of HEK293 cell membrane preparations
Assay: cell-based or functional assay

Aβ production in an in vitro γ-secretase assay: 2.4 fold
Substance: recombinant gSAP-16K (aa733-854 of the human gSAP), expressed and purified from BL21 DE3 E.coli (from UniProt A4D1B5 733-854)
